The text below walks through data of patent US20200377590A1 (Hoffmann-La Roche, published 2020).

To fix the notation:
B1: CD81K04 HC K04_JA_GG-17-hVH_1_3 / LC JA_GG-07-hVK_7_3 (antibody, V domains shown)
VH: QVQLVQSGAEVKKPGASVKVSCKASGYTFSSSWMNWVRQAPGQRLEWMGRIYSGDGDTIYSQKFQGRVTITADTSASTAYMELSSLRSEDTAVYYCAREGKTGDLLLRSWGQGTLVTVSS
VL: DIVLTQSPASLAVSPGQRATITCRASKSVSTSIYSYMHWYQQKPGQPPKLLIKYASNKDTGVPARFSGSGSGTDFTLTINPVEANDAANYYCLHSREFPYTFGQGTKLEIK
notes: human constant region
B2: CD81K04 HC GG-02-hVH_1_69 / LC GG-05-hVK_3_11 (antibody, V domains shown)
VH: QVQLVQSGAEVKKPGSSVKVSCKASGYTFSSSWMNWVRQAPGQGLEWMGRIYSGDGDAIYNQKFQGRVTITADESTSTAYMELSSLRSEDTAVYYCAREGKTGDLLLRSWGQGTLVTVSS
VL: EIVLTQSPATLSLSPGERATLSCRASKSVSTSIYSYLHWYQQKPGQAPRLLIYYASNRETGIPARFSGSGSGTDFTLTISSLEPEDFAVYYCQHSREFPFTFGQGTKLEIK
notes: human constant region
B3: CD81K04 HC JA_GG-14-hVH_1_69-GA / LC GG-05-hVK_3_11 (antibody, V domains shown)
VH: QVQLVQSGAEVKKPGSSVKVSCKASGYTFSSSWMNWVRQAPGQGLEWMGRIYSGDGDAIYNGKFKGKATITADESTSTAYMELSSLRSEDTAVYYCAREGKTGDLLLRSWGQGTLVTVSS
VL: EIVLTQSPATLSLSPGERATLSCRASKSVSTSIYSYLHWYQQKPGQAPRLLIYYASNRETGIPARFSGSGSGTDFTLTISSLEPEDFAVYYCQHSREFPFTFGQGTKLEIK
notes: human constant region
B4: CD81K04 HC JA_GG-14-hVH_1_69 / LC GG-05-hVK_3_11 (antibody, V domains shown)
VH: QVQLVQSGAEVKKPGSSVKVSCKASGYTFSSSWMNWVRQAPGQGLEWMGRIYSGDGDAIYNGKFKGKATITADESTSTAYMELSSLRSEDTAVYYCAREGKTGDLLLRSWGQGTLVTVSS
VL: EIVLTQSPATLSLSPGERATLSCRASKSVSTSIYSYLHWYQQKPGQAPRLLIYYASNRETGIPARFSGSGSGTDFTLTISSLEPEDFAVYYCQHSREFPFTFGQGTKLEIK
notes: human constant region
B5: CD81K04 HC GG-04-hVH_1_69 / LC GG-05-hVK_3_11 (antibody, V domains shown)
VH: QVQLVQSGAEVKKPGSSVKVSCKASGYTFSSSWMNWVRQAPGQGLEWMGRIYSGDGDAIYNQKFQGRATITADESTSTAYMELSSLRSEDTAVYYCAREGKTGDLLLRSWGQGTLVTVSS
VL: EIVLTQSPATLSLSPGERATLSCRASKSVSTSIYSYLHWYQQKPGQAPRLLIYYASNRETGIPARFSGSGSGTDFTLTISSLEPEDFAVYYCQHSREFPFTFGQGTKLEIK
notes: human constant region
B6: CD81K04 HC GG-03-hVH_1_69 / LC GG-05-hVK_3_11 (antibody, V domains shown)
VH: QVQLVQSGAEVKKPGSSVKVSCKASGYTFSSSWMNWVRQAPGQGLEWMGRIYSGDGDAIYAQKFQGRVTITADESTSTAYMELSSLRSEDTAVYYCAREGKTGDLLLRSWGQGTLVTVSS
VL: EIVLTQSPATLSLSPGERATLSCRASKSVSTSIYSYLHWYQQKPGQAPRLLIYYASNRETGIPARFSGSGSGTDFTLTISSLEPEDFAVYYCQHSREFPFTFGQGTKLEIK
notes: human constant region
B7: CD81K04 HC JA_GG-13-hVH_1_69 / LC GG-05-hVK_3_11 (antibody, V domains shown)
VH: QVQLVQSGAEVKKPGSSVKVSCKASGGTFSSSWMNWVRQAPGQGLEWMGRIYSGDGDAIYAQKFQGRVTITADESTSTAYMELSSLRSEDTAVYYCAREGKTGDLLLRSWGQGTLVTVSS
VL: EIVLTQSPATLSLSPGERATLSCRASKSVSTSIYSYLHWYQQKPGQAPRLLIYYASNRETGIPARFSGSGSGTDFTLTISSLEPEDFAVYYCQHSREFPFTFGQGTKLEIK
notes: human constant region
B8: CD81K04 HC JA_GG-14-hVH_1_3 / LC GG-05-hVK_3_11 (antibody, V domains shown)
VH: QVQLVQSGAEVKKPGASVKVSCKASGYTFSSSWMNWVRQAPGQGLEWMGRIYSGDGDAIYNGKFKGRATITADTSASTAYMELSSLRSEDTAVYYCAREGKTGDLLLRSWGQGTLVTVSS
VL: EIVLTQSPATLSLSPGERATLSCRASKSVSTSIYSYLHWYQQKPGQAPRLLIYYASNRETGIPARFSGSGSGTDFTLTISSLEPEDFAVYYCQHSREFPFTFGQGTKLEIK
notes: human constant region

The target in this test is T1, CD81 (UniProt P60033 1-236, limits assumed).
T1 construct: whole, on cells; also called CD81 receptor
T1 sequence (looked up): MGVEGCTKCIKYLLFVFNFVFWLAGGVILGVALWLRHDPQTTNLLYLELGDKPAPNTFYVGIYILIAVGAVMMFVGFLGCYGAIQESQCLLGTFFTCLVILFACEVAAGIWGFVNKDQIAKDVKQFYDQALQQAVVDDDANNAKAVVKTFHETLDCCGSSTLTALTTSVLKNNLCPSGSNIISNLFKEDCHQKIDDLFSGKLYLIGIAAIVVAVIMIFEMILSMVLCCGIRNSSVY
Put plainly: cell ELISA.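 Note: antibody binding to HuH7 cells expressing CD81 versus a CD81-negative HuH7 control line, bound antibody detected by secondary reagent, absorbance at 450 nm with 620 nm reference.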
Experimental: For the binding cell ELISA assay, HuH7-Rluc-H3 (positive cell line expressing CD81) and HuH7-Rluc-L1 (negative control cell line) were propagated in F-12 DMEM medium with 10% FCS at 37° C. and 5% CO₂. On day 1, the cells were trypsinized at approximately 90% confluence and resuspended at 4×10⁵ cells/mL. […] On day 2, the antibody samples to be tested were prepared in a separate polypropylene round bottom plate with a twofold desired concentration with a final volume of 120 μl. All of the assay samples were diluted in cell culture medium. […] After fixation, each well was washed 3 times with 200 μL PBS/0.05% Tween. The secondary incubation step for detection of bound anti-CD81 antibodies was performed for 2 h at room temperature on a reciprocal shaker. […] Each well was washed three times with 200 μL PBS/0.05% Tween to remove unbound antibodies. […] The absorbance was read using the ELISA Tecan reader at 450 nm with 620 nm reference wavelength.
As for B1, the ELISA data amounted to 0.219.

B2 came in with an ELISA data of 0.229.

The molecule B3 had an ELISA data of 0.376.

On to B4, for which the ELISA data is 0.403.

The molecule B5 returned an ELISA data of 0.352.

B6 displayed an ELISA data of 0.204.

For the molecule B7, the ELISA data amounted to 0.228.

As to B8, the ELISA data worked out at 0.696.
